Results from patent US20240261333A1 (published 2024).

Legend:
Assay in all cases: co-IP with mouse anti-FLAG from lysate of cells overexpressing N-FLAG B3GNT2, then mass spectrometry
MAGED2 = target: T1, MAGED2 (human, UniProt Q9UNF1 2-606)
T1 construct: Identified by mass spectrometry in the co-IP; also called NP_803182.1
T1 sequence (looked up): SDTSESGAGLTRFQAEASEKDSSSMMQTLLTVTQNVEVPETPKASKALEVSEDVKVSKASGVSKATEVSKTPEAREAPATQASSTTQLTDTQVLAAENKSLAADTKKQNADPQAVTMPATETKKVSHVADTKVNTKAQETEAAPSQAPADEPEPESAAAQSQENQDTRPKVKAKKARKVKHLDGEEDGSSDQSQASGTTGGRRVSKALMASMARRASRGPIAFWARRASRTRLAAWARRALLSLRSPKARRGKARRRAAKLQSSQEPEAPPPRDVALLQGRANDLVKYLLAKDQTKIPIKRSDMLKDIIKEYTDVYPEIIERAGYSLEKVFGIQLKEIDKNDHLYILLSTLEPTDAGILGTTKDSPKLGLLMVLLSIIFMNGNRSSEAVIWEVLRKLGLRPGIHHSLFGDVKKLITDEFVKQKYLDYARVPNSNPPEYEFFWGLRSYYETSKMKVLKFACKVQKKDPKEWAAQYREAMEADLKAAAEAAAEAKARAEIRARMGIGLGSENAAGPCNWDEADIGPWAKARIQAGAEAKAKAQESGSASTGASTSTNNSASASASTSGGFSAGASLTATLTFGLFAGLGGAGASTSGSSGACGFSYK
Protocol: (§1) Cells were plated in 10-cm cell culture dishes and grown to 60-80% confluency. For each condition, two biological replicates were harvested for co-IP. Cells were washed with PBS and 4 mL of lysis buffer (20 mM HEPES, 1% Triton X-100, 150 mM NaCl, 1 mM EDTA, and 10% glycerol) containing protease inhibitor cocktail was added. Cells were scraped and lysate was incubated at 4° C. under rotary agitation for 1 h. Lysate was centrifuged at 14,000×g for 10 min at 4° C. Supernatant was transferred to a new tube and an aliquot was taken as the input. […] For Western blots, 10 μg/mL Chicken Anti-FLAG (Aves labs ET-DY100) and IgY control (R&D Systems AB-101-C) antibodies were biotinylated (Thermo Fisher Scientific 90407) and added to the respective conditions. Lysates with antibodies were incubated at 4° C. under rotary agitation overnight. For each mL of lysate, 50 μL of Pierce Protein A/G Magnetic Beads (Mass spectrometry; Thermo Fisher Scientific 88803) or Pierce Streptavidin Magnetic Beads (Western blot; Thermo Fisher Scientific 88817) was washed twice with lysis buffer. Lysates with antibodies were added to the beads and incubated at 4° C. under rotary agitation for 4 h. Beads were washed with lysis buffer 3 times and resuspended in lysis buffer for storage.
(§2) Magnetic beads were resuspended in 100 mM Tris pH 7.8, reduced, alkylated and digested with trypsin at 37° ° C. overnight. This solution was subjected to solid phase extraction to concentrate the peptides and remove unwanted reagents followed by injection onto a Shimadzu HPLC with fraction collector. Eight fractions were collected and after concentration were injected on a Waters NanoAcquity HPLC equipped with a self-packed Aeris 3 μm C18 analytical column 0.075 mm by 20 cm, (Phenomenex). Peptides were eluted using standard reverse-phase gradients. The effluent from the column was analyzed using a Thermo Orbitrap Elite mass spectrometer (nanospray configuration) operated in a data dependent manner for 54 minutes. The resulting fragmentation spectra were correlated against the known database using Proteome Discover 1.4 (Thermo Fisher Scientific).

CPSF6 = target: T2, CPSF6 (human, UniProt Q16630-2 1-588, limits assumed)
T2 construct: Identified by mass spectrometry in the co-IP; also called NP_001287876.1 (+3)
T2 sequence (looked up): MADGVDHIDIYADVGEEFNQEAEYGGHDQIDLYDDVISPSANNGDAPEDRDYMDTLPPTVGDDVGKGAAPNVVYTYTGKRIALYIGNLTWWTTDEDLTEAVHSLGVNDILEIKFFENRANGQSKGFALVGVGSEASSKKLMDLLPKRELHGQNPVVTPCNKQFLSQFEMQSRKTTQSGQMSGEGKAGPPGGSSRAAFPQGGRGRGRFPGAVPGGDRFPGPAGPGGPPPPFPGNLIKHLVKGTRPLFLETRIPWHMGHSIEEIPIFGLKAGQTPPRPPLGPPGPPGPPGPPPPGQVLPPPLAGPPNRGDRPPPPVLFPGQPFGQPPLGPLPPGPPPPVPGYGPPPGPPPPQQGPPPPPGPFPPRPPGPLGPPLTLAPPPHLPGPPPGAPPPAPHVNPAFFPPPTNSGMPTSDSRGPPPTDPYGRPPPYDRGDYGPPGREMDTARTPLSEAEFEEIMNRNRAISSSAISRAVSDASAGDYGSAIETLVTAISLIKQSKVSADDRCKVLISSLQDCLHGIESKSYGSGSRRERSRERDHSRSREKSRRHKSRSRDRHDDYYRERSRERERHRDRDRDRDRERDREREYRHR
Protocol: as §1, §2

CAPRIN1 = target: T3, CAPRIN1 (human, UniProt Q14444 2-709)
T3 construct: Identified by mass spectrometry in the co-IP; also called NP_005889.3 (+1)
T3 sequence (looked up): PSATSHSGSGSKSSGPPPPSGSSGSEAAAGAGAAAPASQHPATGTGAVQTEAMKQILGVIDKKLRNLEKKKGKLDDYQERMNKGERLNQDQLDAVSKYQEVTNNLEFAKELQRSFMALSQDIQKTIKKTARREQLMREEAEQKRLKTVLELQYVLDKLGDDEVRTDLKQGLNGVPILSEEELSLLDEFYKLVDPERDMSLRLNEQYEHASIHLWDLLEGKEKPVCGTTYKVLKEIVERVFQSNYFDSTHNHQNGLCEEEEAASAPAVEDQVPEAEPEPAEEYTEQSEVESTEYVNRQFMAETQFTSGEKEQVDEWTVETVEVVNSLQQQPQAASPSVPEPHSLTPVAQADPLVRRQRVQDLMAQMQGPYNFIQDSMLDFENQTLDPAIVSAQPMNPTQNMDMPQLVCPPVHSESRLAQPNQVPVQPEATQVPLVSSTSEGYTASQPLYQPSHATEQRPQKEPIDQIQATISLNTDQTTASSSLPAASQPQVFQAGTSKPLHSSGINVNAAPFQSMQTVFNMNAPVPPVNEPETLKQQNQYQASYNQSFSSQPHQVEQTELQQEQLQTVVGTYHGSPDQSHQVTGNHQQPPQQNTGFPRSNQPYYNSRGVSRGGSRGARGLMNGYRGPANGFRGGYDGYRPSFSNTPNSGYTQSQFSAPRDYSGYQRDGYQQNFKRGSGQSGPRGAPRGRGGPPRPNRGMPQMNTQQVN
Protocol: as §1, §2

B1: N-terminal FLAG tagged B3GNT2 (enzyme, human, UniProt Q9NY97 1-397, looked up)
chain: MSVGRRRIKLLGILMMANVFIYFIMEVSKSSSQEKNGKGEVIIPKEKFWKISTPPEAYWNREQEKLNRQYNPILSMLTNQTGEAGRLSNISHLNYCEPDLRVTSVVTGFNNLPDRFKDFLLYLRCRNYSLLIDQPDKCAKKPFLLLAIKSLTPHFARRQAIRESWGQESNAGNQTVVRVFLLGQTPPEDNHPDLSDMLKFESEKHQDILMWNYRDTFFNLSLKEVLFLRWVSTSCPDTEFVFKGDDDVFVNTHHILNYLNSLSKTKAKDLFIGDVIHNAGPHRDKKLKYYIPEVVYSGLYPPYAGGGGFLYSGHLALRLYHITDQVHLYPIDDVYTGMCLQKLGLVPEKHKGFRTFDIEEKNKNNICSYVDLMLVHSRKPQEMIDIWSQLQSAHLKC
notes: FLAG-tagged ORF overexpressed in A375 cells; bait of the co-IP with mouse anti-FLAG; also called N-FLAG B3GNT2; N-term FLAG; not shown: N-terminal FLAG tag
- co-IP mass spectrometry count (N-term FLAG) (MAGED2): 0
- co-IP mass spectrometry count (N-term FLAG) (CPSF6): 30
- co-IP mass spectrometry count (N-term FLAG) (CAPRIN1): 7
